Experimental data as given in patent US11921118B2, “Methods for proteome labeling” (The Board of Trustees of the Leland Stanford Junior …, priority 2018, dated 2024).

Columns and labels:
[1] = test system: HEK293T; experiment: Proteome labeling after transient transfection and AzY/AzF incubation, DIBO-Alexa Fluor 647 in-gel fluorescence; assay type: cell-based, human; conditions: transient transfection, 2 mM AzY or AzF
Method: (§1) Cells were lysed, pre-treated with iodoacetamide (IAM) to block background thiol-yne additions (25), and treated with dibenzocyclooctyne (DIBO)-Alexa Fluor 647 dye for copper-free, strain-promoted azide-alkyne cycloaddition.
(§2) Cell transfection, click amino acid labeling, and selection of stably transfected B16-F10 cells. Unless otherwise noted, cells were transiently transfected with Lipofectamine 3000 (Invitrogen) 24 hours prior to 4-Azido-L-phenylalanine (AzF, Chem-Implex) or 3-Azido-L-tyrosine (AzY, Watanabe Chemical Industries) labeling. For initial assessment of labeling across mammalian cell lines, transfected cells were incubated with 2 mM of AzF, AzY, tyrosine, or phenylalanine for 30 hours in 12-well plates prior to lysis. To characterize enzyme selectivity and rate of substrate activation, transfected HEK293T cells were incubated with varying amounts of endogenous and non-canonical amino acids for 24 hours in 12-well plates prior to lysis. For affinity enrichment prior to shotgun mass spectrometry, transfected HEK293T cells were incubated with 125 μM of endogenous and non-canonical amino acids for 24 hours in 10 cm dishes prior to lysis. B16-F10 cells were transfected with mutant synthetases in the Piggybac vector PB513B-1 for 72 hours prior to puromycin selection at 10 μg/ml for 10 days.
(§3) Copper-free reaction of DIBO-Alexa Fluor 647 with click-labeled cell lysates for in-gel fluorescence. After washing in PBS twice, cells were lysed 1% SDS in PBS with EDTA-free protease inhibitor (Roche). […] Protein concentrations were measured with a BCA Protein Assay Kit (Pierce) to ensure equal loading across gel wells (˜23 μg). […] Colloidally stained gels were imaged in the 800-nm channel of an Odyssey CLx (LI-COR), where no bleed-through of the Alexa Fluor 647 signal was detected. Quantification of signal intensities of labeled proteomes from each gel lane were analyzed in ImageJ as before, but with slight modifications (36). […] Instead, the mean and standard deviations were calculated from biological triplicates of whole gel lanes, less the dye front.

[2] = test system: HEK293T cells; experiment: Selectivity of ncAA activation over canonical amino acid, in-gel AF647 fluorescence fitted to Michaelis-Menten kinetics; assay type: cell-based, human; conditions: equimolar concentrations of the two amino acids; serum-containing media, 24 h
Text: FIGS. 2A-2E: Identification and characterization of TyrRS and PheRS variants for bioorthogonal labeling of mammalian proteomes with AzY and AzF. FIG. 2A: A single substitution (Y43G) in the amino acid binding site of yeast tyrosyl-tRNA synthetase (ScTyrY43G) enables charging of the azido tyrosine analog AzY onto tRNA^TYr before incorporation into nascent proteins of host cells. FIG. 2B: A single substitution (T413G) in the amino binding site of human or mouse phenylalanyl-tRNA synthetase (MmPheT413G) enables charging of the azido phenylalanine analog AzF onto tRNA^Phe. FIG. 2C: In-gel fluorescence image of Alexa Fluor 647 labeling corresponding to AzY or AzF incorporation into mammalian cell proteomes. ‘WT’: no exogenous amino acid added to media. ‘CP1 switch’: an E. coli TyrRS with the human CP1 peptide engrafted. ‘Mj TyRS’: TyrRS from the species M. jannaschii, without its accompanying tRNA. FIG. 2D: High selectivity of ScTyrY43G for AzY over Tyr. In-gel Alexa Fluor 647 fluorescence and coomassie blue staining of whole gel lanes were quantified to assess the degree of proteome labeling normalized to total protein content. […]
Copper-free reaction of DIBO-Alexa Fluor 647 with click-labeled cell lysates for in-gel fluorescence. […] Protein concentrations were measured with a BCA Protein Assay Kit (Pierce) to ensure equal loading across gel wells (˜23 μg). […]

[3] = test system: CHO; experiment: Proteome labeling after transient transfection and AzY/AzF incubation, DIBO-Alexa Fluor 647 in-gel fluorescence; assay type: cell-based, hamster; conditions: transient transfection, 2 mM AzY or AzF
Method: as §1, §2, §3

[4] = test system: B16-F10; experiment: as above; assay type: cell-based, mouse; conditions: transient transfection, 2 mM AzY or AzF
Method: as §1, §2, §3

B1: MmPheT413G: mouse phenylalanyl-tRNA synthetase with T413G substitution, charges AzF onto tRNA-Phe; SEQ ID NO:5 (protein)
chain: MADNPVLELLLRRLEVADGGLDSAELATQLGVEHQAVVGAVKSLQALGEVIEAELRSTKCWELTTEGEEIAREGSHEARVFRSIPLEGLVQSELMHLPSGKVGFSKAMSNKWIRVDKSAADGPRVFRVVDSIEDEVQKRLQLVQAGQAEKLAEKERNELRKRKLLTEVILKTYWVSKGKAFSTSVSKQEAELSPEMISSGSWRDRPFKPYNFSARGVLPDSGHLHPLLKVRSQFRQIFLEMGFTEMPTDNFIESSFWNFDALFQPQQHPARDQHDTFFLRDPAEALQLPMGYVQRVKRTHSQGGYGSQGYKYTWKLEEARKNLLRTHTTAASARALYQLAQKKPFTPAKYFSIDRVFRNETLDATHLAEFHQIEGVIADHGLTLGHLMGVLREFFTKLGITQLRFKPAYNPYGEPSMEVFSYHQGLKKWVEVGNSGVFRPEMLLPMGLPENVSVIAWGLSLERPTMIKYGINNIRELVGHKVNLQMVYDSPVCRLDIEPRSSKTQEAA
proteome labeling [1]: strong labeling | activation of AzF faster than Phe [2]: over 11 fold | proteome labeling [3]: strong labeling | proteome labeling [4]: strong labeling

B2: HsPheT413G: human phenylalanyl-tRNA synthetase with T413G substitution; SEQ ID NO:6 (protein)
chain: MADGQVAELLLRRLEASDGGLDSAELAAELGMEHQAVVGAVKSLQALGEVIEAELRSTKHWELTAEGEEIAREGSHEARVFRSIPPEGLAQSELMRLPSGKVGFSKAMSNKWIRVDKSAADGPRVFRVVDSMEDEVQRRLQLVRGGQAEKLGEKERSELRKRKLLAEVTLKTYWVSKGSAFSTSISKQETELSPEMISSGSWRDRPFKPYNFLAHGVLPDSGHLHPLLKVRSQFRQIFLEMGFTEMPTDNFIESSFWNFDALFQPQQHPARDQHDTFFLRDPAEALQLPMDYVQRVKRTHSQGGYGSQGYKYNWKLDEARKNLLRTHTTSASARALYRLAQKKPFTPVKYFSIDRVFRNETLDATHLAEFHQIEGVVADHGLTLGHLMGVLREFFTKLGITQLRFKPAYNPYGEPSMEVFSYHQGLKKWVEVGNSGVFRPEMLLPMGLPENVSVIAWGLSLERPTMIKYGINNIRELVGHKVNLQMVYDSPLCRLDAEPRPPPTQEAA
proteome labeling [1]: strong labeling | proteome labeling [3]: strong labeling | proteome labeling [4]: strong labeling

B3: ScTyrY43G: yeast tyrosyl-tRNA synthetase with Y43G substitution, charges AzY onto tRNA-Tyr; SEQ ID NO:4 (protein)
chain: MSSAATVDPNEAFGLITKNLQEVLNPQIIKDVLEVQKRHLKLGWGTAPTGRPHCGYFVPMTKLADFLKAGCEVTVLLADLHAFLDNMKAPLEVVNYRAKYYELTIKAILRSINVPIEKLKFVVGSSYQLTPDYTMDIFRLSNIVSQNDAKRAGADVVKQVANPLLSGLIYPLMQALDEQFLDVDCQFGGVDQRKIFVLAEENLPSLGYKKRAHLMNPMVPGLAQGGKMSASDPNSKIDLLEEPKQVKKKINSAFCSPGNVEENGLLSFVQYVIAPIQELKFGTNHFEFFIDRPEKFGGPITYKSFEEMKLAFKEEKLSPPDLKIGVADAINELLEPIRQEFADNKEFQEASEKGYPVATPQKSKKAKKPKNKGTKYPGATKTNEIATKLEETKL
proteome labeling [1]: strong labeling | activation of AzY faster than Tyr [2]: ~250 fold | proteome labeling [3]: strong labeling | proteome labeling [4]: strong labeling
